Test results published in US20240076371A1, “COMPOSITIONS AND METHODS FOR TREATING OSTEOARTHRITIS, RHEUMATOID ARTHRITIS, AND JOINT AND TENDON DISORDERS” (BOARD OF REGENTS, THE UNIVERSITY OF TEXAS SYSTEM, priority 2021, published 2024).

Tests used:
[1] = biological target: T1, Cx43 hemichannels (HCs) in primary mouse chondrocytes (Mus musculus, UniProt P23242); assay: Ethidium bromide dye uptake assay in primary mouse chondrocytes; format: cell-based
T1 construct: In primary mouse chondrocytes, ethidium bromide dye uptake assay; endogenous in cells; host or cells: primary mouse chondrocytes
T1 sequence (P23242 whole entry): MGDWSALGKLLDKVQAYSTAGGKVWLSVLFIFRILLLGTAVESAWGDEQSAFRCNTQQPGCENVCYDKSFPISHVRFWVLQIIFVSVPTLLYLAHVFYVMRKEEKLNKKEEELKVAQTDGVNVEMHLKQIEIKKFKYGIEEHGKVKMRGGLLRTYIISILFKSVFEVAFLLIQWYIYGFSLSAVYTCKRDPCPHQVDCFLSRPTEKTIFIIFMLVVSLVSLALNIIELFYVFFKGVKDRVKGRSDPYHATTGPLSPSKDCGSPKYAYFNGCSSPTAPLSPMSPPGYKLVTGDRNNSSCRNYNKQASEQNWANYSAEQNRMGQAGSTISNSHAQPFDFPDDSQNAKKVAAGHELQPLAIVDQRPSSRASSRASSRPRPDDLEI

[2] = test system: post-traumatic OA model (DMM) in male C57BL/6 mice; assay: DMM OA model: synovitis score; format: in vivo, mouse; conditions: vs saline
Protocol: (§1) Destabilization of the medial meniscus (DMM) surgery was performed on the right knee joint of mice (Glasson S S, et al. Osteoarthritis and cartilage. 2007; 15(9):1061-9). Briefly, a 3 mm longitudinal incision over the distal patella to proximal tibial plateau was made. The joint capsule immediately medial to the patellar tendon was incised with a #15 blade and the joint capsule opened with micro-iris scissors. Blunt dissection of the fat pad over the intercondylar area was then performed to expose the intercondylar region, providing visualization of the meniscotibial ligament of the medial meniscus. Mild hemorrhage from the fat pad upon blunt dissection was controlled by pressure from absorption spears. Sectioning of medial meniscotibial ligament with micro-surgical knife, with the blade directed proximo-laterally, gave destabilization of the medial meniscus (DMM). Sham surgery was performed with the ligament visualized but not transected.
The degree of synovitis is determined considering synovial membrane thickening and synovial hyperplasia and scored on a scale of 0-3 (0, no synovitis; 1, mild synovitis; 2, moderate synovitis; and 3, severe synovitis) (Krenn V, et al. Pathology, research and practice. 2002; 198(5):317-25; and Huesa C, et al. Annals of the rheumatic diseases. 2016; 75(11):1989-97. Blinded histomorphometric assessment was performed.

[3] = test system: post-traumatic OA model (DMM) in male C57BL/6 mice; assay: DMM OA model: immunohistochemistry of Col X and MMP13 in articular cartilage; format: in vivo, mouse
Protocol: Destabilization of the medial meniscus (DMM) surgery was performed on the right knee joint of mice (Glasson S S, et al. Osteoarthritis and cartilage. 2007; 15(9):1061-9). Briefly, a 3 mm longitudinal incision over the distal patella to proximal tibial plateau was made. The joint capsule immediately medial to the patellar tendon was incised with a #15 blade and the joint capsule opened with micro-iris scissors. Blunt dissection of the fat pad over the intercondylar area was then performed to expose the intercondylar region, providing visualization of the meniscotibial ligament of the medial meniscus. Mild hemorrhage from the fat pad upon blunt dissection was controlled by pressure from absorption spears. Sectioning of medial meniscotibial ligament with micro-surgical knife, with the blade directed proximo-laterally, gave destabilization of the medial meniscus (DMM). Sham surgery was performed with the ligament visualized but not transected. Immunohistochemistry. The ABC (avidin-biotin-peroxidase complex) Immunostaining Assay Kit (Vector Laboratories, PK-6101) was used. Briefly, bone tissue sections were antigen unmasked using sodium citrate buffer (pH 6.0) at 65° C. for 2 h for MMP13 staining and trypsin digestion buffer (pH 7.8) at 37° C. for 30 min for collagen X staining. Bone tissue sections were then treated with goat normal serum for 20 min at room temperature to block nonspecific background staining. Tissue sections were stained with anti-MMP13 polyclonal antibody (1:200 dilution, Abcam, ab39012), or labeled with anti-collagen X monoclonal antibody (1:100 dilution, Thermo Fisher, 14-9771-82) at 4° C. overnight. Then, the sections were incubated for 30 min with biotin-labeled secondary antibody and VECTASTAIN ABC Reagent for 30 min Samples were washed in PBS buffer and developed in DAB (SK4100) chromogen solution (Vector Laboratories, Burlingame, CA, USA). Tissues were then counterstained with VECTOR Hematoxylin (H-3401) for 5 min at room temperature. Slides were then dehydrated, cleared, and mounted. Sections were photographed using the Keyence microscope (BZ-X710, Keyence, Osaka, Japan). The percentage of MMP13 or Col X-positive chondrocytes were quantified using NIH Image J software.

[4] = test system: post-traumatic OA model (DMM) in male C57BL/6 mice; assay: DMM OA model: Von Frey filament test (paw withdrawal threshold); format: in vivo, mouse
Protocol: as §1
Animal behavioral tests. The paw withdraw threshold was measured using von Frey filaments 0.007 to 2. Mice were placed in acrylic chambers (5.5×10 cm) suspended above a wire mesh grid and allowed to acclimatize to the testing apparatus for 30 minutes prior to experiments. When the mouse was not moving the von Frey filaments were pressed against the plantar surface of the paw until the filament buckled and held for a maximum of 3 seconds. A positive response was noted if the paw was sharply withdrawn on application of the filament. Flinching immediately upon removal of the filament was also considered a positive response (Chaplan S R, et al. Journal of neuroscience methods. 1994; 53(1):55-63; and Bonin R P, et al. Molecular pain. 2014; 10:26). Testing began with filament number 0.4 and progressed according to an up-down method.

[5] = test system: knee joint region (synovium); assay: In vivo antibody binding pattern in the knee joint (immunofluorescence); parameters: species or system mouse
Source text: Immunofluorescent staining. The isolated femur and tibia bones were fixed in 4% paraformaldehyde for 2 days prior to decalcification with 10% EDTA (pH 7.5) for 3 weeks, and then dehydrated in 30% sucrose/PBS for 3 days. Samples were embedded in the Tissue-Tek CRYO OCT compound (Thermo Fisher Scientific, Pittsburgh, PA, USA), and 12-μm-thick sections were collected on glass slides. Sections were blocked and permeabilized with 2% goat serum, 2% fish skin gelatin, 0.025% Triton X-100 and 1% bovine serum albumin in PBS. The sections were incubated overnight at 4° C. with affinity-purified antibodies against Cx43 (CT) (1:100) (Cherian P P, et al. The Journal of biological chemistry. 2003; 278(44):43146-56), for 1 hour with the appropriate secondary antibody. Slides were mounted using Vectashield mounting medium (H-1000, Vector Lab). Confocal fluorescence imaging was performed using a confocal laser scanning microscope (LSM770, Carl Zeiss, Oberkochen, Germany).
M1 antibody binds to synovium and inhibits hemichannel opening in OA. Due to the dense nature of cartilage and large size of antibodies, a widely held perception is that antibodies are unable to penetrate the cartilage matrix. To determine the antibody binding pattern in the knee joint region, M1 antibody (25 mg/kg) with human IgG epitope or saline was intraperitoneally (i.p.) injected at 30 mins after DMM surgery. As shown in the diagram (FIG. 8A), mice were euthanized and perfused before isolation of hindlimbs at one or two weeks after injection. Frozen tissue sections were prepared and immuno-labeled with Alexa Fluor 594-conjugated anti-human IgG secondary antibody. […] The synovium of joints comprises macrophage-like type A cells, which are responsible for phagocytosing synovial fluid, and fibroblast-like type B cells, which produce hyaluronic acid and mucin to nourish and mechanically protect, respectively, the underlying articular cartilage (Donahue H J, et al. Nature reviews Rheumatology. 2017; 14(1):42-51). […]

B1: M1 antibody: antibody with variable heavy chain SEQ ID NO: 58 and variable light chain SEQ ID NO: 60; inhibits or blocks opening of Cx43 hemichannel (antibody, V domains shown)
VH: EVQLQQPGAELVKPGASVKLSCKASGYTFTSYYMYWVKQRPGQGLEWIGGINPSNGGTNFNEKFKNKATLTVDKSSSTAYMQLSSLTSEDSAVYYCTREGNPYYTMNYWGQGTSVTVSS
VL: DIVMTQSPSSLSVSAGEKVTMSCKSSQSLLNSGNQKTYLAWYQQKPGQPPKLLIYGASTRESGVPDRFTGSGSGTDFTLTISSVQAEDLAVYYCQNDHSYPFTFGSGTKLEIK
IL-1β treatment induced HCs opening (ethidium bromide dye uptake) [1]: blocked
degree of synovitis (synovitis score) ([2]; DMM mice, i.p. twice at 30 minutes and four weeks post-surgery, 8 weeks after DMM): marked reduction
degree of synovitis (synovitis score) ([2]; delayed treatment: i.p. at 10, 25 and 40 days after DMM surgery, eight weeks after DMM): significant reduction
distribution of MMP13-positive chondrocytes in articular cartilage zones ([3]; DMM mice, eight weeks, saline: three zones): localized mainly in the middle and deep zones
percentage of Col X positive cells ([3]; articular cartilage, eight weeks following DMM, i.p. twice, vehicle-treated 52%): 38%
percentage of MMP-13-positive cells in the articular cartilage ([3]; eight weeks after DMM, i.p. twice, saline-treated 36%): 27%
MMP13 score, ratio of integrated optical density (IOD) to articular cartilage area ([3]; single i.p. injection at 30 minutes post-surgery, eight weeks after DMM, saline 0.17±0.016): 0.10±0.009
response threshold to mechanical stimuli (von Frey) ([4]; 4 weeks after DMM, vs saline): slight trend of increased response threshold
paw withdrawal threshold relative to saline treated DMM mice ([4]; 8 weeks after DMM, i.p. twice): 121.4%
paw withdraw threshold in sham mice, saline vs antibody ([4]; sham mice at 8 weeks): No difference
paw withdraw threshold to mechanical stimuli (von Frey) ([4]; single i.p. injection, eight weeks after DMM, vs saline): slight trend of increased paw withdraw threshold
antibody binding site in the knee joint region ([5]; 25 mg/kg i.p. at 30 mins after DMM surgery, anti-human IgG secondary antibody): primarily localized in the synovium region
antibody signal after administration ([5]; 25 mg/kg i.p. at 30 mins after DMM surgery, one or two weeks after injection): detectable at both one and two weeks
time after administration at which antibody signals were detected ([5]; synovium region): more than 2 weeks
